Source: IntAct's records for PubMed 18432193

B1: Protein draper (Drosophila melanogaster (Fruit fly)), Q9W0A0 (parent)
chain: MLPVILIACLAQLVLAQADLKDLDGPNICKRRELYNVDVVYTELQSFQERGSTWCVTFPPRCSTYRIKHRVVNKTKTIAKNRIVRDCCDGYIASAGECVPHCSEPCQHGRCISPEKCKCDHGYGGPACDINCPPGWYGRNCSMQCDCLNNAVCEPFSGDCECAKGYTGARCADICPEGFFGANCSEKCRCENGGKCHHVSGECQCAPGFTGPLCDMRCPDGKHGAQCQQDCPCQNDGKCQPETGACMCNPGWTGDVCANKCPVGSYGPGCQESCECYKGAPCHHITGQCECPPGYRGERCFDECQLNTYGFNCSMTCDCANDAMCDRANGTCICNPGWTGAKCAERICEANKYGLDCNRTCECDMEHTDLCHPETGNCQCSIGWSSAQCTRPCTFLRYGPNCELTCNCKNGAKCSPVNGTCLCAPGWRGPTCEESCEPGTFGQDCALRCDCQNGAKCEPETGQCLCTAGWKNIKCDRPCDLNHFGQDCAKVCDCHNNAACNPQNGSCTCAAGWTGERCERKCDTGKFGHDCAQKCQCDFNNSLACDATNGRCVCKQDWGGVHCETNCRSGYYGENCDKVCRCLNNSSCDPDSGNCICSAGWTGADCAEPCPPGFYGMECKERCPEILHGNKSCDHITGEILCRTGYIGLTCEHPCPAGLYGPGCKLKCNCEHGGECNHVTGQCQCLPGWTGSNCNESCPTDTYGQGCAQRCRCVHHKVCRKADGMCICETGWSGTRCDEVCPEGFYGEHCMNTCACPSANFQCHAAHGCVCRSGYTGDNCDELIASQRIADQSENSSRASVALTLVLMTLFACIIFAVFIYYRRRVSNLKTEIAHVHYTHDTNPPSWPPNHNFDNPVYGMQAETRLLPNNMRSKMNNFDQRSTMSTDYGDDCNASGRVGSYSINYNHDLLTKNLNADRTNPIVYNESLKEEHVYDEIKHKEGYKDPDEYDHLDYSRPSTSQKPHYHRMNDAMLNINQDEEKPSNVKNMTVLLNKPLPPTEPEPQHECFDNTNTNLDNVSTASPSSSPKFLK
partner: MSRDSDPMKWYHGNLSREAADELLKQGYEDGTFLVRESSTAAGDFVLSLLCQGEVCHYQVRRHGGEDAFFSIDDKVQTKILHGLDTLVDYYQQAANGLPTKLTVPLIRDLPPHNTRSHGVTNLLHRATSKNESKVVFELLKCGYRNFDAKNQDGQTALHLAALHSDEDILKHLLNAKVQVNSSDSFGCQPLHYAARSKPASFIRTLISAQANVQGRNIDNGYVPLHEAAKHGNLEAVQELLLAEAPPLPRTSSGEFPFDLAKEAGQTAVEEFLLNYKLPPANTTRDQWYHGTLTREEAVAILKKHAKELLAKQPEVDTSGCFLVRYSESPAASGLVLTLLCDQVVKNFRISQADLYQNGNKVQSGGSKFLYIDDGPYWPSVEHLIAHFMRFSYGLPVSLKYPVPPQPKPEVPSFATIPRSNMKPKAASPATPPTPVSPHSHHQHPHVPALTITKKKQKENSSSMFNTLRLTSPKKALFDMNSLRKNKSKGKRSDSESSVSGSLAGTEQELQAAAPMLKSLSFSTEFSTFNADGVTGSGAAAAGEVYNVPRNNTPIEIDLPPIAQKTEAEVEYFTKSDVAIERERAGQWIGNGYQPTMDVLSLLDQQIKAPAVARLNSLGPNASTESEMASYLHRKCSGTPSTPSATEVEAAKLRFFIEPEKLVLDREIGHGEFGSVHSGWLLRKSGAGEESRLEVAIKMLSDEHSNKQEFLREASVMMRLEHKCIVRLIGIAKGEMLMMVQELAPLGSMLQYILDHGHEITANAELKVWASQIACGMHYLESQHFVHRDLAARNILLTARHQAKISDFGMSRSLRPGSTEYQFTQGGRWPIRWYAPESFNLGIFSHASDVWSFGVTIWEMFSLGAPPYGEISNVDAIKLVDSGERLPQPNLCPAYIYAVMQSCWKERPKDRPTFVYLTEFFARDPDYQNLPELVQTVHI

Variants of: B1
Conditions: with shark_drome Shark

| Variant | effect of a mutation on the interaction |
| --- | --- |
| Y934F | decreasing interaction |
| Y949F | disrupting interaction |

Variants of: B1
Conditions: with shark_drome Shark
Remark: another data set of the same source

| Variant | effect of a mutation on the interaction |
| --- | --- |
| Y949F | decreasing interaction |
